# In PMC6954420, “Heterochromatin protein 1α interacts with parallel RNA and DNA G-quadruplexes”:
# What was measured:
# [1] = target: T1, HP1α (mouse, UniProt Q61686 1-191); experiment: BLI; K+; BLI: 100 mM KCl, 50 mM NaCl, 20 mM Na phosphate, pH 8 (G4) or pH 7 (i-motif, dsDNA), room temp, 500 nM oligo or titration; EMSA: 50 mM Tris-HCl pH 7.5, 100 mM KCl, 0.5 mM EDTA, 0.5 mM DTT, 0.1 mg/ml BSA, room temp 1 h; conditions: protein: recombinant, tags: N-terminal His6 (pPROEX HTb), chain copies: 2
# T1 sequence (Q61686 whole entry): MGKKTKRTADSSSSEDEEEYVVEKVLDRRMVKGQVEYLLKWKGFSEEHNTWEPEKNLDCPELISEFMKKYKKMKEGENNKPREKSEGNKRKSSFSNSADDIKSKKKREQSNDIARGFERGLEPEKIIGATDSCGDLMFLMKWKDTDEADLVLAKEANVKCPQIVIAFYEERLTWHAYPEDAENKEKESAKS
# [2] = target: T1, HP1α; experiment: BLI; BLI: 100 mM KCl, 50 mM NaCl, 20 mM Na phosphate, pH 8 (G4) or pH 7 (i-motif, dsDNA), room temp, 500 nM oligo or titration; EMSA: 50 mM Tris-HCl pH 7.5, 100 mM KCl, 0.5 mM EDTA, 0.5 mM DTT, 0.1 mg/ml BSA, room temp 1 h; conditions: protein: recombinant, tags: N-terminal His6 (pPROEX HTb), chain copies: 2
# [3] = target: HP1α 3K-A (mouse, UniProt Q61686 1-191, K104A;K105A;K106A); experiment: BLI; K+; BLI: 100 mM KCl, 50 mM NaCl, 20 mM Na phosphate, pH 8 (G4) or pH 7 (i-motif, dsDNA), room temp, 500 nM oligo or titration; EMSA: 50 mM Tris-HCl pH 7.5, 100 mM KCl, 0.5 mM EDTA, 0.5 mM DTT, 0.1 mg/ml BSA, room temp 1 h; conditions: protein: recombinant; tags: N-terminal His6 (pPROEX HTb); chain copies: 2; antiparallel G4
# Sequence of HP1α 3K-A (Q61686 whole entry K104A/K105A/K106A): as the sequence (Q61686 whole entry) above, with K104A, K105A, K106A counted along it
# [4] = target: HP1β (mouse, UniProt P83917 1-185); experiment: as above; conditions: protein: recombinant; tags: N-terminal His6 (pPROEX HTb); chain copies: 2; antiparallel G4
# Sequence of HP1β (P83917 whole entry): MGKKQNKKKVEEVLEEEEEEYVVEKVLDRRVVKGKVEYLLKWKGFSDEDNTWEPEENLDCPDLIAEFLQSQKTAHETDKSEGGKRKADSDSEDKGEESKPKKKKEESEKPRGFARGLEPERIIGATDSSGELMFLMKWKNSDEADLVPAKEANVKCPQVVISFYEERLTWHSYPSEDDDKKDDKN
# [5] = target: HP1γ (mouse, UniProt P23198 1-183); experiment: as above; conditions: protein: recombinant; tags: N-terminal His6 (pPROEX HTb); chain copies: 2; antiparallel G4
# Sequence of HP1γ (P23198 whole entry): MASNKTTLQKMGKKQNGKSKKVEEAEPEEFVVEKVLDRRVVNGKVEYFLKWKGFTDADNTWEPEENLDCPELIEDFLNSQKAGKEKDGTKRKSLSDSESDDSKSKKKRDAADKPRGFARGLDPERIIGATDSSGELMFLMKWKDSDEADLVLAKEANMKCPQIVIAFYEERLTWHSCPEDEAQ
# [6] = target: T1, HP1α; experiment: BLI; pH 7; BLI: 100 mM KCl, 50 mM NaCl, 20 mM Na phosphate, pH 8 (G4) or pH 7 (i-motif, dsDNA), room temp, 500 nM oligo or titration; EMSA: 50 mM Tris-HCl pH 7.5, 100 mM KCl, 0.5 mM EDTA, 0.5 mM DTT, 0.1 mg/ml BSA, room temp 1 h; conditions: protein: recombinant, tags: N-terminal His6 (pPROEX HTb), chain copies: 2
binder,measurement,setting,value
AGGGGCGGGCGCGGGAGGAAGGGGGCGGGAGCGGGGCTG (structured_DNA) [bcl2],Kd,[1]; parallel G4,93.5 ± 1.6 nM
GGGAGGGAGGGCTGGGGG (structured_DNA) [src3],Kd,[1]; parallel G4,140 ± 2 nM
GGGCGGGCGCCAGGGAGGGG (structured_DNA) [ckit2],Kd,[1]; parallel G4,199 ± 3 nM
GGGTGGGTAGGGTGGG (structured_DNA) [c-myc2],Kd,"[1]; parallel G4, at least dimer on native PAGE",610 ± 40 nM
GGGGCAGCTGGGTCGCTCGGGGAACGGGG (structured_DNA) [src2],Kd,[1]; antiparallel G4,410 ± 20 nM
GGGCTGCTGGGACTGGTTGGGAGGGCACTCTGGGG (structured_DNA) [src16],Kd,[1]; antiparallel G4,1630 ± 1700 nM
TGGGTTAGGGTTAGGGTTAGGGTGGGTTAGGGTTAGGGTTAGGGT (structured_DNA) [Oligo G],binding result,[1]; antiparallel or hybrid G4,no binding
ACCCAAUCCCAAUCCCAAUCCC (ssRNA) [rC-rich22],binding result,[2],no binding
GGGTTAGGGTTAGGGTTAGGGTTAGGGTTAGGGTTAGGGTTAGGG (structured_DNA) [gTEL45],binding result,[3],no binding
same,binding result,[1]; antiparallel G4,no binding
same,binding result,[4],no binding
same,binding result,[5],no binding
TTTTTTTTTTTTTTTTTTTTTTTTTTTTTTTTTTTTTTTTTTTTT (ssDNA) [Thy45],binding result,[2]; unstructured,no binding
TGGGTGGGTGGGTGGGTGGGTGGGTGGGTGGGT (structured_DNA) [Oligo A],Kd,[1]; parallel G4,86.8 ± 0.2 nM
TGGGTTGGGTTGGGTTGGGTTGGGTTGGGTTGGGTTGGGT (structured_DNA) [Oligo B],Kd,"[1]; parallel G4, monomer-dimer equilibrium",69.1 ± 0.9 nM
TCGTTCCGTTTTTCGTTCCGTTTTTCGTTCCGTTTTTCGTTCCGT (structured_DNA) [LL3rep],binding result,[6]; mini-i-motif,no binding
CCCTAACCCTAACCCTAACCCTAACCCTAACCCTAACCCTAACCC (structured_DNA) [cTEL45],binding result,[6]; i-motif (partial at pH 7),no binding
TGGGTTAGGGTGGGTTAGGGTGGGTTAGGGTGGGTTAGGGT (structured_DNA) [Oligo C],Kd,[1]; parallel G4,78.2 ± 0.3 nM
TGGGTGGGTTAGGGTGGGTGGGTGGGTTAGGGTGGGT (structured_DNA) [Oligo D],Kd,[1]; parallel G4,52.6 ± 1.1 nM
TGGGTGGGTTAGGGTTAGGGTGGGTGGGTTAGGGTTAGGGT (structured_DNA) [Oligo E],Kd,[1]; parallel G4,43.8 ± 1 nM
TGGGTTAGGGTTAGGGTGGGTGGGTTAGGGTTAGGGTGGGT (structured_DNA) [Oligo F],Kd,[1]; parallel G4,61.7 ± 1.5 nM
AGGGCGGTGTGGGAAGAGGGAAGAGGGGGAGG (structured_DNA) [kras],Kd,[1]; parallel G4,68.8 ± 0.7 nM
